From publication PMC5059719, “Tetrameric structure of the restriction DNA glycosylase R.PabI in complex with nonspecific double-stranded DNA” (Scientific Reports, 2016) come the findings set out here.

In one series the target is T1, R.PabI Y68F R70D (Pyrococcus abyssi, UniProt Q9V2B6 8-226, Y68F;R70D).
T1 sequence: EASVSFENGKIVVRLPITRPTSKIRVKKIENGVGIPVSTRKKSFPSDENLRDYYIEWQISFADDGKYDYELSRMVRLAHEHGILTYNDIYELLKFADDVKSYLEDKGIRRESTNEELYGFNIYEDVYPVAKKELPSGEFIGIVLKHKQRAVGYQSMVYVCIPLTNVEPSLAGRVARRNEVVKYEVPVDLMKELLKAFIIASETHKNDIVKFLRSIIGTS
As to the kind of experiment: EMSA; supershift only, about the same as Y68F; poly-dT competitor; EMSA: 0.1 uM DNA, 0.1-12.8 uM R.PabI dimer, 10 mM MES pH 6.0, 300 mM NaCl, 50 uM poly-dT (40 nt) competitor, 30 min at 4 C; 12% PAGE in 0.5x TBE at 4 C. The following applies: protein: recombinant; chain copies: 4; label: 5'-fluorescein; blunt; self-complementary, 2 copies of S1. On the technique in general: In EMSA bound probe runs differently from free probe, usually more slowly.

Series [1] concerns the target T2, R.PabI Y68F (Pyrococcus abyssi, UniProt Q9V2B6 8-226, Y68F).
T2 sequence: T1 sequence with D63R
As to the kind of experiment: EMSA; predominant supershift (tetramer), dimer band very weak; poly-dT competitor; EMSA: 0.1 uM DNA, 0.1-12.8 uM R.PabI dimer, 10 mM MES pH 6.0, 300 mM NaCl, 50 uM poly-dT (40 nt) competitor, 30 min at 4 C; 12% PAGE in 0.5x TBE at 4 C. Conditions: protein: recombinant; chain copies: 2; label: 5'-fluorescein; blunt; self-complementary, 2 copies of S1.

The target of the next series is T3, R.PabI Y68F R70D D71R (Pyrococcus abyssi, UniProt Q9V2B6 8-226, Y68F;R70D;D71R).
T3 sequence: T1 sequence with D64R
As to the kind of experiment: EMSA; similar to Y68F; poly-dT competitor; EMSA: 0.1 uM DNA, 0.1-12.8 uM R.PabI dimer, 10 mM MES pH 6.0, 300 mM NaCl, 50 uM poly-dT (40 nt) competitor, 30 min at 4 C; 12% PAGE in 0.5x TBE at 4 C. Conditions: protein: recombinant; chain copies: 4; label: 5'-fluorescein; blunt; self-complementary, 2 copies of S1.

Another series concerns the target T4, R.PabI Y68F D71R (Pyrococcus abyssi, UniProt Q9V2B6 8-226, Y68F;D71R).
T4 sequence: T1 sequence with D63R, D64R
As to the kind of experiment: EMSA; dimer shift at 0.2-1.6 uM plus supershift; tetramerization inhibited; poly-dT competitor; EMSA: 0.1 uM DNA, 0.1-12.8 uM R.PabI dimer, 10 mM MES pH 6.0, 300 mM NaCl, 50 uM poly-dT (40 nt) competitor, 30 min at 4 C; 12% PAGE in 0.5x TBE at 4 C. Conditions: protein: recombinant; chain copies: 2; label: 5'-fluorescein; blunt; self-complementary, 2 copies of S1.

Series [2] concerns the target T2, R.PabI Y68F. As to the kind of experiment: EMSA; about the same binding as co-crystallization DNA; poly-dT competitor; EMSA: 0.1 uM DNA, 0.1-12.8 uM R.PabI dimer, 10 mM MES pH 6.0, 300 mM NaCl, 50 uM poly-dT (40 nt) competitor, 30 min at 4 C; 12% PAGE in 0.5x TBE at 4 C. Conditions: protein: recombinant; chain copies: 2; label: 5'-fluorescein; blunt; self-complementary, 2 copies of S2.

Series [3] deals with T2, R.PabI Y68F. As to the kind of experiment: EMSA; dimer shift at low concentration, supershift at high; poly-dT competitor; EMSA: 0.1 uM DNA, 0.1-12.8 uM R.PabI dimer, 10 mM MES pH 6.0, 300 mM NaCl, 50 uM poly-dT (40 nt) competitor, 30 min at 4 C; 12% PAGE in 0.5x TBE at 4 C. Conditions: protein: recombinant; chain copies: 2; label: 5'-fluorescein; blunt; self-complementary, 2 copies of S3.

The next series has as its target T5, R.PabI R32A E63A (Pyrococcus abyssi, UniProt Q9V2B6 8-226, R32A;E63A).
T5 sequence: T1 sequence with R25A, E56A, F61Y, D63R
As to the kind of experiment: X-ray crystallography; 1.9 A; tetramer sandwiches dsDNA; 0.2 M calcium acetate, 0.1 M imidazole pH 8.0, 10% PEG8000; EMSA: 0.1 uM DNA, 0.1-12.8 uM R.PabI dimer, 10 mM MES pH 6.0, 300 mM NaCl, 50 uM poly-dT (40 nt) competitor, 30 min at 4 C; 12% PAGE in 0.5x TBE at 4 C. The following applies: protein: recombinant; chain copies: 4; blunt; self-complementary, 2 copies of S1.

Numbering of substitutions follows the chain as printed.

B1: 20 bp nonspecific probe (same sequence as co-crystallization) (dsDNA)
DNA 1: GCACTAGTTCGAACTAGTGC
DNA 2: GCACTAGTTCGAACTAGTGC
As to B1, the binding result with R.PabI Y68F R70D, with R.PabI Y68F [1], in the series with R.PabI Y68F R70D D71R and in the series with R.PabI Y68F D71R was “binds” in each case.

B2: 20 bp nonspecific probe without GT, TA, AC steps (dsDNA)
DNA 1: GCATCGATTCGAATCGATGC
DNA 2: GCATCGATTCGAATCGATGC
B2: the binding result in the series with R.PabI Y68F [2] is on record as “binds”.

B3: 20 bp specific probe (GTAC) (dsDNA)
DNA 1: GCATAGCTGTACAGCTATGC
DNA 2: GCATAGCTGTACAGCTATGC
In the case of B3, in the series with R.PabI Y68F [3], the binding result is reported as “binds”.

B4: 20 bp nonspecific dsDNA (co-crystallization) (dsDNA)
DNA 1: GCACTAGTTCGAACTAGTGC
DNA 2: GCACTAGTTCGAACTAGTGC
On to B4, for which, in the series with R.PabI R32A E63A, the binding result is “binds”.
